Measurements taken from patent US12258605B2, “Alkane oxidation by modified hydroxylases” (The California Institute of Technology, priority 2005, dated 2025).
“Also recorded” adds a separate entry of the source.

Tests used:
[1] = Reactions on laurate; assay type: biochemical; conditions: laurate 2 mM, 5 hours, room temperature
Protocol: Reactions on laurate. P450PMO activity on laurate was tested mixing the substrate (2 mM) with purified protein (up to 0.5 μM) in 100 mM KPi pH 8.0 buffer, and adding NADPH to final concentration of 1 mM. Reaction mixtures were incubated for 5 hours at room temperature under gentle stirring. Analysis of the hydroxylated products was carried out by derivatization with N-methyl-N-trimethylsilylheptafluorobutyramide (Aldrich) followed by GC analysis according to a published procedure. A control experiment was carried out using wild-type P450BM3.
Products from alkane reactions were identified and quantified by gas chromatography using authentic standards and calibration curves with internal standards. For the reactions with alkanes from pentane to decane, GC analyses were carried out using a Shimadzu GC-17A gas chromatograph, Agilent HP5 column (30 m×0.32 mm×0.1 μm film), 1 μL injection, FID detector, and the following separation program: 250° C. inlet, 250° C. detector, 50° C. oven for 3 min, 5° C./min gradient to 100° C., 25° C./min gradient to 230° C., and 230° C. for 3 min. […] Organic solutions were analyzed by FID-GC. […]

[2] = Kinetic constants for n-alkanes: hexane; assay type: biochemical; conditions: N.a. = not active
Protocol: Rate measurements. Initial rates of product formation were determined at 25° C. in 100 mM KPi pH 8.0 buffer using purified protein (100 nM) and a substrate concentration of 1.6 mM. In a 5 mL-vial, 20 μL of alkane solution (in ethanol) were dissolved in 400 μL KPi buffer, to which 500 μL enzyme solution at 100-200 nM was added. Reaction was initiated by adding 100 μL of 5 mM NADPH solution, followed by stirring at 300 rpm for 1 minute, and quenched by adding 200 μL chloroform and stirring at 800 rpm for 10 sec. Solutions were transferred to an Eppendorf tube, to which internal standard (10 μL 25 mM 1-bromohexane in ethanol) was added. Tubes were vortexed for 10 sec and centrifuged for 30 sec at 10,000 g. Organic phase was removed and analyzed by GC. For propane, reactions were carried out in a 5 mL-scale using 100-400 nM purified enzyme, propane-saturated buffer (propane concentration≈1.6 mM) and a final NADPH concentration of 500 μM. Reactions were stopped by addition of 200 μL H2SO4 conc. and analyzed by derivatization to alkyl nitrites followed by GC-ECD analysis as described below.
Products from alkane reactions were identified and quantified by gas chromatography using authentic standards and calibration curves with internal standards. For the reactions with alkanes from pentane to decane, GC analyses were carried out using a Shimadzu GC-17A gas chromatograph, Agilent HP5 column (30 m×0.32 mm×0.1 μm film), 1 μL injection, FID detector, and the following separation program: 250° C. inlet, 250° C. detector, 50° C. oven for 3 min, 5° C./min gradient to 100° C., 25° C./min gradient to 230° C., and 230° C. for 3 min. For butane and propane (TTN) reactions, GC analyses were carried out using a Hewlett-Packard 5890 Series II Plus gas chromatograph, Supelco SPB-1 column (60 m×0.52 mm×0.5 μm film), 0.5 μL injection, FID detector, and the following separation program: 250° C. inlet, 275° C. detector, 80° C. oven for 2 min, 10° C./min gradient to 110° C., 25° C./min gradient to 275° C., and 275° C. for 2.5 min. For ethane and propane (rate) reactions, analysis of reaction mixtures was carried out by derivatization to alkyl nitrites followed by GC-ECD analysis. For laurate, reaction product analysis was carried out by derivatization with N-methyl-N-trimethylsilylheptafluorobutyramide followed by extraction with hexane. Organic solutions were analyzed by FID-GC.
To further investigate the evolution of substrate specificity, kinetic constants for the C5 to C8 alkanes were determined from Michaelis-Menten plots (Table 19). The preference of 35E11 and its evolutionary predecessors for medium-chain alkanes is indicated by their high C8/C5 specificities ((kcat/Km)8/(kcat/Km)5˜100), where Km appears to be the major contributing factor. […]

B1: P450PMO: P450 BM-3 variant, SEQ ID NO:125; 7-7 plus G443A and D698G; propane monooxygenase (protein)
chain: TIKEMPQPKTFGELKNLPLLNTDKPVQALMKIADELGEIFKFEAPGCVTRYISSQRLIKEACDESRFDKNLSQELKFFRDFGGDGLFTSWTHEINWKKAHNILLPSFSQQAMKGYHAMMVDIAVQLVQKWERLNADEHIEVSEDMTRLTLDTIGLCGFNYRFNSFYRDQPHPFIISMVRALDEVMNKPQRANPDDPAYDENKRQCQEDIKVMNDLVDKIIADRKARGEQSDDLLTQMLNGKDPETGEPLDDGNISYQIITFLIAGHETTSGLLSFALYFLVKNPHVLQKVVEEAARVLVDPVPSYKQVKQLKYVGMVLNEALRLWPTFPAFSLYAKEDTVLGGEYPLEKGDEVMVLIPQLHRDKTVWGDDVEEFRPERFENPSAIPQHAFKPFGNGQRACIGQQFALHEATLVLGMMLKHFDFEDHTNYELDIKETLTLKPEAFVVKAKSKKIPLGGIPSPSTGQSAKKVRKKAENAHNTPLLVLYGSNMGTAEGTARDLADIAMSKGFAPQVATLDSHAGNLPREGAVLIVTASYNGHPPDNAKQFVDWLDQASADEVKGVRYSVFGCGDKNWATTYQKVPAFIDETLAAKGAENIADRGEADASDDFEGTYEEWREHMWSDVAAYFNLDIENSEDNKSTLSLQFVDSAADMPLAKMHGAFSTNVVASKELQQPGSARSTRHLEIELPKEASYQEGGHLGVIPRNYEGTVNRVTARFGLDASQQIRLEAEEEKLAHLPLAKTVSVEELLQYVELQDPVTRTQLRAMAAKTVCPPHKVELEALLEKQAYKEQVLAKRLTMLELLEKYPACEMKFSEFIALLPSIRPRYYSISSSPRVDEKQASITVSVVSGEAWSGYGEYKGIASNYLAELQEGDTITCFISTPQSEFTLPKDPETPLIMVGPGTGVAPFRGFVQARKQLKEQGQSLGEAHLYFGCRSPHEDYLYQEELENAQSEGIITLHTAFSRMPNQPKTYVQHVMEQDGKKLIELLDQGAHFYICGDGSQMAPAVEATLMKSYADVHQVSEADARLWLQQLEEKGRYAKDVWAG
modifications: Mutant P450PMO protein sequence
notes: 7-7 plus G443A and D698G; propane monooxygenase
hydroxylation products of laurate [1]: no hydroxylation product could be detected; also recorded: no detectable amounts of hydroxylated fatty acids | Km [2]: 430 ± 91 µM | kcat [2]: 85 ± 17 min⁻¹
